According to article PMC5700813, “A recombinant BBSome core complex and how it interacts with ciliary cargo” (eLife, 2017):
Read-outs that look alike come from different tables or passages of the source. Ends that are not written are not given here. fluorescein = fluorescein, N-terminal fluorescent label

B1: BBS1 (aa1-430) (domain or fragment, human, UniProt Q8NFJ9-1 1-430, looked up)
chain: MAAASSSDSDACGAESNEANSKWLDAHYDPMANIHTFSACLALADLHGDGEYKLVVGDLGPGGQQPRLKVLKGPLVMTESPLPALPAAAATFLMEQHEPRTPALALASGPCVYVYKNLRPYFKFSLPQLPPNPLEQDLWNQAKEDRIDPLTLKEMLESIRETAEEPLSIQSLRFLQLELSEMEAFVNQHKSNSIKRQTVITTMTTLKKNLADEDAVSCLVLGTENKELLVLDPEAFTILAKMSLPSVPVFLEVSGQFDVEFRLAAACRNGNIYILRRDSKHPKYCIELSAQPVGLIRVHKVLVVGSTQDSLHGFTHKGKKLWTVQMPAAILTMNLLEQHSRGLQAVMAGLANGEVRIYRDKALLNVIHTPDAVTSLCFGRYGREDNTLIMTTRGGGLIIKILKRTAVFVEGGSEVGPPPAQAMKLNVPRK
notes: BBS1, human, residues 1-430; also called BBS1 ß-propeller domain; truncated BBS1 subunit; source: Hi5 insect cells (baculovirus), purified

Assays:
SSTR3 CT2 (human) = biological target: SSTR3 CT2 (human (from the printed UniProt accession)); assay: fluorescence polarisation; fluorescein-labelled peptide or Smo fragment (0.1–1 µM) titrated with core BBSome or BBS1 (aa1-430); quadratic binding fit
SSTR3 CT4 (human) = biological target: SSTR3 CT4 (human (from the printed UniProt accession)); assay: as above
5HT6 CT (human) [1] = biological target: T1, 5HT6 CT (human (from the printed UniProt accession)); assay: as above
T1 sequence (P50406 325-344): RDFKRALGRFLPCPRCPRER

GPR161 3ICL (human) = biological target: GPR161 3ICL (human (from the printed UniProt accession)); assay: as above
Smo CT2 (human) = biological target: Smo CT2 (human (from the printed UniProt accession)); assay: as above
SSTR3 CT7 (human) = biological target: SSTR3 CT7 (human (from the printed UniProt accession)); assay: as above
Smo CT3 (human) = biological target: Smo CT3 (human (from the printed UniProt accession)); assay: as above
Chain of Smo CT3 (human (Q99835 541-577): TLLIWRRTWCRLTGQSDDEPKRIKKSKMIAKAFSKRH

Smo CT6 (human) = biological target: Smo CT6 (human (from the printed UniProt accession)); assay: as above
MCH 3ICL (human) = biological target: MCH 3ICL (human (from the printed UniProt accession)); assay: as above
Chain of MCH 3ICL (human (peptide, as listed by the source): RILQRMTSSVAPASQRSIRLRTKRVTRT

NMU 3ICL2 (human) = biological target: NMU 3ICL2 (human (from the printed UniProt accession)); assay: as above
Chain of NMU 3ICL2 (human (Q9HB89 271-294): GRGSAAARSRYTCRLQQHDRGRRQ

Smo CT5 (human) = biological target: Smo CT5 (human (from the printed UniProt accession)); assay: as above
SSTR3 CT3 (human) = biological target: SSTR3 CT3 (human (from the printed UniProt accession)); assay: as above
SSTR3 CT9 (human) = biological target: SSTR3 CT9 (human (from the printed UniProt accession)); assay: as above
SSTR3 CT6 (human) = biological target: SSTR3 CT6 (human (from the printed UniProt accession)); assay: as above
GPR161 CT1 (human) = biological target: GPR161 CT1 (human (from the printed UniProt accession)); assay: as above
Chain of GPR161 CT1 (human (Q8N6U8 328-354): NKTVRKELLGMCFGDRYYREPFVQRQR

GPR161 CT2 (human) = biological target: GPR161 CT2 (human (from the printed UniProt accession)); assay: as above
Chain of GPR161 CT2 (human (Q8N6U8 489-510): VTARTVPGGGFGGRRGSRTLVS

SSTR3 3ICL (human) = biological target: SSTR3 3ICL (human (from the printed UniProt accession)); assay: as above
SSTR3 CT5 (human) = biological target: SSTR3 CT5 (human (from the printed UniProt accession)); assay: as above
SSTR3 CT1 (human) = biological target: SSTR3 CT1 (human (from the printed UniProt accession)); assay: as above
[2] = biological target: fluoresceine-labeled Smo (R546-L665) (human (from the printed UniProt accession)) (UniProt Q99835); assay: as above
Chain of fluoresceine-labeled Smo (R546-L665) (human (Q99835 546-665): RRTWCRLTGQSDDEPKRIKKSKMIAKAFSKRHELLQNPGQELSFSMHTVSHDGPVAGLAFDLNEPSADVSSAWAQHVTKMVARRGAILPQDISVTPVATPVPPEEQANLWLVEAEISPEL

Smo CT4 (human) = biological target: Smo CT4 (human (from the printed UniProt accession)); assay: as above
Smo CT8 (human) = biological target: Smo CT8 (human (from the printed UniProt accession)); assay: as above
NMU 3ICL1 (human) = biological target: NMU 3ICL1 (human (from the printed UniProt accession)); assay: as above
Chain of NMU 3ICL1 (human (peptide, as listed by the source): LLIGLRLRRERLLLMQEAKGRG

Smo CT1 (human) = biological target: Smo CT1 (human (from the printed UniProt accession)); assay: as above
SSTR3 CT8 (human) = biological target: SSTR3 CT8 (human (from the printed UniProt accession)); assay: as above
Smo CT7 (human) = biological target: Smo CT7 (human (from the printed UniProt accession)); assay: as above
5HT6 CT (human) [3] = biological target: T1, 5HT6 CT (human); assay: as above; remark: listed apart in the source
SSTR3 CT2 = biological target: T2, SSTR3 CT2 (human (from the printed UniProt …, fluorescein on the N-terminus)); assay: as above; details: both partners purified
T2 construct: SSTR3, three residues of the 7th transmembrane region and 21 of the C-terminus; limits worked out from the printed RRVR 333-336; source: synthetic peptide, bought: Proteogenix
T2 peptide: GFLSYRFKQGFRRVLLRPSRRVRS

[4] = biological target: the molecule itself; assay: SEC; full length BBS9 at high concentrations; at lower concentrations the single peak shifts to lower molecular weight (fast equilibrium between monomer and dimer)
BBS1 (aa1-430) = biological target: B1; assay: fluorescence polarisation; fluorescein-labelled peptide or Smo fragment (0.1–1 µM) titrated with core BBSome or BBS1 (aa1-430); quadratic binding fit; details: both partners purified
[5] = biological target: the molecule itself; assay: SEC; samples purified by affinity chromatography and gel filtration; 2.5–10 µg of the peak fraction on a Superdex 200 5/20 column; elution volume against standard proteins

## 6mer BBSome core complex (BBS1, 4, 5, 8, 9 and 18) (from UniProt Q8NFJ9-1 1-593; Q96RK4-1 1-519; Q8N3I7-1 1-341; Q8TAM2 1-541; Q3SYG4-1 1-887; A8MTZ0-1 1-92)
SSTR3 CT2 (human)
  Kd: 0.11 µM
SSTR3 CT4 (human)
  Kd: 0.4 µM
5HT6 CT (human) [1]
  Kd: 44.2 µM
GPR161 3ICL (human)
  Kd: 6.3 µM
Smo CT2 (human)
  Kd: > 100 µM
SSTR3 CT7 (human)
  Kd: 1 µM
Smo CT3 (human)
  Kd: 1.4 µM
Smo CT6 (human)
  Kd: 12.5 µM
MCH 3ICL (human)
  Kd: 68.8 µM
NMU 3ICL2 (human)
  Kd: > 100 µM
Smo CT5 (human)
  Kd: 9.7 µM
SSTR3 CT3 (human)
  Kd: 1.1 µM
SSTR3 CT9 (human)
  Kd: 4.7 µM
SSTR3 CT6 (human)
  Kd: 4.5 µM
GPR161 CT1 (human)
  Kd: 67.4 µM
GPR161 CT2 (human)
  Kd: > 100 µM
SSTR3 3ICL (human)
  Kd: 12.8 µM
SSTR3 CT5 (human)
  Kd: 1.5 µM
SSTR3 CT1 (human)
  Kd: 22.1 µM
[2]
  Kd: 36.1 µM
Smo CT4 (human)
  Kd: 1.1 µM
Smo CT8 (human)
  Kd: 6.8 µM
NMU 3ICL1 (human)
  Kd: 18.1 µM
Smo CT1 (human)
  Kd: 1.8 µM
SSTR3 CT8 (human)
  Kd: 11 µM
Smo CT7 (human)
  Kd: 14.3 µM
5HT6 CT (human) [3]
  Kd: > 50 µM

## B1
SSTR3 CT2
  fold lower affinity than to the core BBSome: ~100 fold

B2: BBS9 (full length) (natural protein, human, UniProt Q3SYG4-1 1-887, looked up)
chain: MSLFKARDWWSTILGDKEEFDQGCLCLANVDNSGNGQDKIIVGSFMGYLRIFSPHPAKTGDGAQAEDLLLEVDLRDPVLQVEVGKFVSGTEMLHLAVLHSRKLCVYSVSGTLGNVEHGNQCQMKLMYEHNLQRTACNMTYGSFGGVKGRDLICIQSMDGMLMVFEQESYAFGRFLPGFLLPGPLAYSSRTDSFLTVSSCQQVESYKYQVLAFATDADKRQETEQQKLGSGKRLVVDWTLNIGEQALDICIVSFNQSASSVFVLGERNFFCLKDNGQIRFMKKLDWSPSCFLPYCSVSEGTINTLIGNHNNMLHIYQDVTLKWATQLPHIPVAVRVGCLHDLKGVIVTLSDDGHLQCSYLGTDPSLFQAPNVQSRELNYDELDVEMKELQKIIKDVNKSQGVWPMTEREDDLNVSVVVSPNFDSVSQATDVEVGTDLVPSVTVKVTLQNRVILQKAKLSVYVQPPLELTCDQFTFEFMTPDLTRTVSFSVYLKRSYTPSELEGNAVVSYSRPTDRNPDGIPRVIQCKFRLPLKLICLPGQPSKTASHKITIDTNKSPVSLLSLFPGFASQSDDDQVNVMGFHFLGGARITVLASKTSQRYRIQSEQFEDLWLITNELILRLQEYFEKQGVKDFACSFSGSIPLQEYFELIDHHFELRINGEKLEELLSERAVQFRAIQRRLLARFKDKTPAPLQHLDTLLDGTYKQVIALADAVEENQGNLFQSFTRLKSATHLVILLIALWQKLSADQVAILEAAFLPLQEDTQELGWEETVDAAISHLLKTCLSKSSKEQALNLNSQLNIPKDTSQLKKHITLLCDRLSKGGRLCLSTDAAAPQTMVMPGGCTTIPESDLEERSVEQDSTELFTNHRHLTAETPRPEVSPLQGVSE
notes: BBS9, human, as NM_198428.2 (887 residues by the printed range 363-887); source: Hi5 insect cells (baculovirus); alone, purified, or co-expressed with other subunits
[4]
  stoichiometry N: 2

B3: SSTR3 3ICL (peptide)
peptide: fluorescein-VKVRSAGRRVWAPSCQRRRRSERRVTRM
notes: SSTR3, third intracellular loop; source: synthetic peptide, bought: Proteogenix
BBS1 (aa1-430)
  binding result: binds

B4: BBS9 C-terminal part (residues 363–887) (domain or fragment, human, UniProt Q3SYG4-1 363-887, looked up)
chain: PSLFQAPNVQSRELNYDELDVEMKELQKIIKDVNKSQGVWPMTEREDDLNVSVVVSPNFDSVSQATDVEVGTDLVPSVTVKVTLQNRVILQKAKLSVYVQPPLELTCDQFTFEFMTPDLTRTVSFSVYLKRSYTPSELEGNAVVSYSRPTDRNPDGIPRVIQCKFRLPLKLICLPGQPSKTASHKITIDTNKSPVSLLSLFPGFASQSDDDQVNVMGFHFLGGARITVLASKTSQRYRIQSEQFEDLWLITNELILRLQEYFEKQGVKDFACSFSGSIPLQEYFELIDHHFELRINGEKLEELLSERAVQFRAIQRRLLARFKDKTPAPLQHLDTLLDGTYKQVIALADAVEENQGNLFQSFTRLKSATHLVILLIALWQKLSADQVAILEAAFLPLQEDTQELGWEETVDAAISHLLKTCLSKSSKEQALNLNSQLNIPKDTSQLKKHITLLCDRLSKGGRLCLSTDAAAPQTMVMPGGCTTIPESDLEERSVEQDSTELFTNHRHLTAETPRPEVSPLQGVSE
notes: BBS9, human, residues 363-887 (GAE, platform and alpha-helical domains); also called C-terminal domain of BBS9; C-terminal appendage part; source: Hi5 insect cells (baculovirus); alone, purified, or co-expressed with BBS1
[5]
  stoichiometry N: 2
